Laboratory results from patent US10131920B2, “Nucleic acid molecules” (MEDIMMUNE LIMITED, priority 2013, dated 2018).

Tested on: GFPY40 reporter (GFP containing an amber codon) in HEK293 cells stably expressing pylRS
Test: Amber suppression-dependent GFP expression (GFPY40 reporter), transient transfection, flow cytometry
Type: cell-based
Conditions: for capacity to support amber suppression relative to H1 WT tRNA (FIG. 4): all tRNA variants under control of the H1 promoter, 1 ug construct + 1 ug GFPY40, lys azide 2 mM, 18 hours; for GFP MFI, FIG. 8: 1 ug PCR product of each construct, lys azide nnAA
Description: To assess the function of the tRNA variants, an in vitro assay was established where cells are transiently transfected with a tRNA construct and a reporter construct encoding GFP containing an amber codon interrupting its reading frame (GFPY40). HEK293 cells stably expressing pylRS were transiently transfected with various tRNA constructs (1 ug) and the GFPY40 reporter (1 ug). In the absence of elements that support amber suppression, a truncated GFP protein is generated and the cell is not fluorescent. However, the introduction of a functional tRNA and the presence of a nnAA that supports amber suppression allows for the production of full length GFP resulting in fluorescent cells. The level of GFP expression reflects the efficiency of amber suppression and is quantified by flow cytometry. tRNA genes encoding wild type tRNApyl (WT tRNA), or containing mutations in the B-box (B tRNA—SEQ ID No 9), in both the A and B box (A2B tRNA—SEQ ID No 10), or in the A box (A1 tRNA-SEQ ID No 7; or A2 tRNA SEQ ID No 11), all under control of the H1 promoter were generated by site directed mutagenesis and assayed. The H1 promoter ensured that the variants were expressed and allowed us to examine the functional effects of the mutations introduced into the tRNA genes. In addition a sample transfected with GFPY40 alone was generated to establish background GFP levels. The transfected cells were grown in presence of the aminoacid analogue lys azide (2 mM) and incubated for 18 hours. GFP fluorescence was then assayed by flow cytometry and mean fluorescence intensity determined for each sample. Data were analysed with FCS Express and the mean fluorescence intensity of each sample determined using markers that constrain the data set to cells showing fluorescence above negative controls.
To begin to assess whether the tRNA mutations can support expression of the tRNA we assayed tRNA constructs encoding the wild type tRNA in the absence of the H1 promoter. Constructs encoding wild type tRNApyl (WT tRNA) or containing mutations in the B-box (B tRNA—SEQ ID No 9) or in both the A and B box (A2B; A2B tRNA—SEQ ID No 10) were assayed using our in vitro amber suppression assay described above. WT tRNA under control of the H1 promoter (H1-tRNA) was used as a positive control, and in addition one sample was transfected only with the GFPY40 reporter to illustrate background amber suppression in the absence of tRNA. The transfected cells were exposed to 2 mM lys-azide nnAA and cells incubated for three days. GFP expression was examined by flow cytometry and mean fluorescence intensity determined.
Two copies of the WT, B, or A2B tRNA were cloned in tandem to generate a single vector containing two copies of WT, B, or A2B tRNA. To assess the effect of increased gene doses by these constructs, cells expressing WTpylRS were transiently transfected with the tRNA constructs and the GFPY40 reporter construct and GFP expression assayed after two days.
The activity of each construct was assessed by transient transfection into cells stably expressing WT pylRS with the GFPY40 reporter as described above. For this experiment, 1 ug of a PCR product encoding each of the indicated constructs was used. In each case, cells were exposed to the lys azide nnAA for three days and GFP levels assayed by flow cytometry. Mean fluorescence intensities were determined for each sample and plotted (FIG. 8).

[1] = 2 mM lys-azide nnAA, three days

Molecule	capacity to support amber suppression relative to H1 WT tRNA (FIG. 4)	GFP MFI, FIG. 8 (three days)	also measured
A2B tRNA: tRNApyl Methanosarcina mazei with A10G, T14A, A52C mutations (nucleic acid, expressed or natural sequence, tRNApyl Methanosarcina mazei with A10G, T14A, A52C mutations) DNA: GGAAACCTGGTCAAGTAGATCGAATGGACTCTAAATCCGTTCAGCCGGGTTCGATTCCCGGGGTTTCCG	support amber suppression, albeit at a lower level than the WT tRNA	–	GFP mean fluorescence intensity (MFI), FIG. 5 [1]: 242,747.9; fold higher expression of GFP than the wt tRNA construct (FIG. 5) [1]: 2.5 fold; GFP MFI, single copy tRNA, FIG. 7 (cells expressing WTpylRS, after two days, single copy): 61,950; GFP MFI, tandem copies of tRNA, FIG. 7 (cells expressing WTpylRS, after two days, single vector containing two copies in tandem): 96,158
H1-A1 tRNA: tRNA-A1 (A10G) under control of the H1 promoter (nucleic acid, Synthetic sequence H1 tRNA-A1 construct, tRNA-A1 (A10G) under control of the H1 promoter) DNA: AATATTTGCATGTCGCTATGTGTTCTGGGAAATCACCATAAACGTGAAATCCCTATCAGTGATAGAGACTTATAAGTTCCCTATCAGTGATAGAGACACCAGGAAACCTGGTCATGTAGATCGAATGGACTCTAAATCCGTTCAGCCGGGTTAGATTCCCGGGGTTTCCGGACAAGTGCGGTTTTTTT	does not affect the activity of the tRNA	–	–
H1 A2 tRNA: tRNA-A2 (A10G, T14A) under control of the H1 promoter (nucleic acid, Synthetic sequence H1 tRNA-A2 construct, tRNA-A2 (A10G, T14A) under control of the H1 promoter) DNA: AATATTTGCATGTCGCTATGTGTTCTGGGAAATCACCATAAACGTGAAATCCCTATCAGTGATAGAGACTTATAAGTTCCCTATCAGTGATAGAGACACCAGGAAACCTGGTCAAGTAGATCGAATGGACTCTAAATCCGTTCAGCCGGGTTAGATTCCCGGGGTTTCCGGACAAGTGCGGTTTTTTT	does not affect the activity of the tRNA	–	–
7SL tRNA A1: tRNA-A1 downstream of the 7SL promoter 5′ region (nucleic acid, Synthetic sequence 7SL tRNA-A1 construct, tRNA-A1 downstream of the 7SL promoter 5′ region) DNA: CCCAGTTGATGACGTCACCATACCACAGCTTCTAGTGCTATTCTGCGCCGGTATCCGACCACCAGGAAACCTGGTCATGTAGATCGAATGGACTCTAAATCCGTTCAGCCGGGTTAGATTCCCGGGGTTTCCGGACAAGTGCGGTTTTT	–	114,393	–
7SL AB: tRNA-AB downstream of the 7SL promoter 5′ region (nucleic acid, Synthetic sequence 7SL tRNA-AB construct, tRNA-AB downstream of the 7SL promoter 5′ region) DNA: CCCAGTTGATGACGTCACCATACCACAGCTTCTAGTGCTATTCTGCGCCGGTATCCGACCACCAGGAAACCTGGTCATGTAGATCGAATGGACTCTAAATCCGTTCAGCCGGGTTCGATTCCCGGGGTTTCCGGACAAGTGCGGTTTTT	–	210,380	–
7SL A2B: tRNA-A2B downstream of the 7SL promoter 5′ region (nucleic acid, Synthetic sequence 7SL tRNA-A2B construct, tRNA-A2B downstream of the 7SL promoter 5′ region) DNA: CCCAGTTGATGACGTCACCATACCACAGCTTCTAGTGCTATTCTGCGCCGGTATCCGACCACCAGGAAACCTGGTCAAGTAGATCGAATGGACTCTAAATCCGTTCAGCCGGGTTCGATTCCCGGGGTTTCCGGACAAGTGCGGTTTTT	–	245,120	–
Vault WT tRNA: WT tRNApyl downstream of the Vault promoter 5′ region (nucleic acid, Synthetic sequence Vault tRNA-WT construct, WT tRNApyl downstream of the Vault promoter 5′ region) DNA: TGGTCGCTGAGTCATGCTGAAGCACTCTCTTTTTGACTCACTCTTTGTGACGTAGGTCTTTCTCACCAGTCAATAAAATATAATCCGAAAGCAACCTCCCACCAGGAAACCTGATCATGTAGATCGAATGGACTCTAAATCCGTTCAGCCGGGTTAGATTCCCGGGGTTTCCGGACAAGTGCGGTTTTT	–	102,415	–
Vault B tRNA: tRNA-B downstream of the Vault promoter 5′ region (nucleic acid, Synthetic sequence Vault tRNA-B construct, tRNA-B downstream of the Vault promoter 5′ region) DNA: TGGTCGCTGAGTCATGCTGAAGCACTCTCTTTTTGACTCACTCTTTGTGACGTAGGTCTTTCTCACCAGTCAATAAAATATAATCCGAAAGCAACCTCCCACCAGGAAACCTGATCATGTAGATCGAATGGACTCTAAATCCGTTCAGCCGGGTTCGATTCCCGGGGTTTCCGGACAAGTGCGGTTTTT	–	170,838	GFP MFI, FIG. 9 (1 ug GFPY40 reporter and 1 ug tRNA expression plasmid): 168,298
Vault A2B tRNA: tRNA-A2B downstream of the Vault promoter 5′ region (nucleic acid, Synthetic sequence Vault tRNA-A2B construct, tRNA-A2B downstream of the Vault promoter 5′ region) DNA: TGGTCGCTGAGTCATGCTGAAGCACTCTCTTTTTGACTCACTCTTTGTGACGTAGGTCTTTCTCACCAGTCAATAAAATATAATCCGAAAGCAACCTCCCACCAGGAAACCTGGTCAAGTAGATCGAATGGACTCTAAATCCGTTCAGCCGGGTTCGATTCCCGGGGTTTCCGGACAAGTGCGGTTTTT	–	154,445	–
